According to US20060088531A1 (CAMBRIDGE ENTERPRISE, published 2006):

What was measured:
hD1D2-CaM [1] = molecular target: T1, hD1D2-CaM (human, UniProt Q9HCN6 21-205; P0DP23 2-149, limits assumed); experiment: resonant mirror biosensor, Cell 1
T1 construct: Residues are counted on mature GPVI, not on the precursor; also called rGPVI; recombinant GPVI
Description: Here, BSA-N9A was covalently immobilised to a carboxymethyldextran surface using the manufacturer's instructions. The machine was then primed with TBS-TCa. A stirring speed of 100, cuvette temperature of 25° C. and reaction volume per cell of 50 μl were used in all experiments unless otherwise indicated. […] Several washes with TBS-TCa were made to remove unbound material from the cell. Then typically the wells were filled with 45 μl buffer to which was added further volumes of purified scFv (e.g. 5 μl) in HBS. The binding of scFv was measured in arc.sec⁻¹. The binding curves were analysed either by recording response at equilibrium versus time (for epitope mapping studies) or by calculating the initial rates of binding at different scFv concentrations using FastFit software (for affinity measurements).
Each scFv was then allowed to bind to saturation.

hD1-CaM = molecular target: T2, hD1-CaM (human, UniProt Q9HCN6 21-109; P0DP23 2-149, limits assumed); experiment: screening ELISA
T2 construct: Residues counted on mature GPVI; also called isolated hD1

hD1D2-CaM [2] = molecular target: T1, hD1D2-CaM; experiment: resonant mirror biosensor, from response ratio against ratio of molecular masses
Description: Binding studies and affinity measurements were conducted using a resonant mirror biosensor (Iasys, Thermolabsystems, Cambridge, UK). Using this system, one protein (the ligand) was immobilised to the mirrored surface of the cell of a cuvette. The cell contains a stirred volume of buffer to which aliquots of a second protein (the ligate) are then added. If the ligate binds or dissociates from the immobilised ligand, these changes are detected optically and give a reading in arc.sec−1 in real time. […] Here, BSA-N9A was covalently immobilised to a carboxymethyldextran surface using the manufacturer's instructions. The machine was then primed with TBS-TCa. A stirring speed of 100, cuvette temperature of 25° C. and reaction volume per cell of 50 μl were used in all experiments unless otherwise indicated. […] Several washes with TBS-TCa were made to remove unbound material from the cell. Then typically the wells were filled with 45 μl buffer to which was added further volumes of purified scFv (e.g. 5 μl) in HBS. The binding of scFv was measured in arc.sec⁻¹. The binding curves were analysed either by recording response at equilibrium versus time (for epitope mapping studies) or by calculating the initial rates of binding at different scFv concentrations using FastFit software (for affinity measurements).
ScFvs were added sequentially to saturation, without washing. […]

mD1D2-CaM = molecular target: T3, mD1D2-CaM (murine, UniProt P0C191 22-206; P0DP23 2-149, limits assumed); experiment: capture ELISA, purified scFv
T3 construct: Residues counted from Q1 (mature protein); also called murine D1D2; mouse D1D2-CaM

B1: scFv 1C3 (scFv, V domains shown)
VH: QVQLQQSGAEVKKPGESLKISCQASGYSFSSYWIAWVRQMPGKGLELMGIIYPGDSDARYSPSFQGQVTFSADKSINTAYLQWSSLKASDTAMYYCARQGKTGSYYFGAFDVWGQGTMVTVSS
VL: QSVLTQPPSMSAAPGQKVTISCTGTSSDVGGYNYVSWYQQHPGKAPKLMLFEVSHRPSGVSNRFSGSKSDNTASLTISGLQAEDEADYYCSSYTGSSTWVFGGGTKVTVL
notes: Human scFv from the Marks library; also called 1C3 scFv
ratio of responses 1C3: D1D2-CaM (hD1D2-CaM [1]): 0.63
binding result (hD1-CaM): no binding
binding ratio (scFv to hD1D2) (hD1D2-CaM [2]): 1

B2: scFv 10B12 (scFv, V domains shown)
VH: EVQLVQSGGGVVQPGGSLRLSCAASGFTFSSYGMHWVRQAPGKGLEWVAFIRYDGSNKYYADSVKGRFTISRDNSKNTLYLQMNSLRAEDTAVYYCTDGWAEMATTDDAFDIWGRGTMVTV
VL: DIQMTQSPSTLSASIGDRVTITCRASEGIYHWLAWYQQKPGKAPKLLIYKASSLASGAPSRFSGSGSGTDFTLTISSLQPDDFATYYCQQYSNYPLTFGGGTKLEIK
notes: Human scFv from the CaT (Vaughan) library; also called 10B12 scFv
ratio of responses 10B12: D1D2-CaM (hD1D2-CaM [1]): 0.61
binding ratio (scFv to hD1D2) (hD1D2-CaM [2]): 1
binding result (mD1D2-CaM): no binding (tested: 10 µg/ml)
